± gives the standard error. Variants at the floor of the assay were thinned out.
B1: glmS ribozyme (parent)
chain: AUAAAAGCGCCAGAACUACAGAAAUGUAGUUGACGAGGAGGAGGUUUAUCGAAUUUUCGGCGGAUGCCUCCAAA

Legend:
Details in all cases: with glucosamine-6-phosphate
[1] = variants of: B1; test: self-cleavage kobs at 40 uM GlcN6P; higher = faster cleavage; RNA array
In short: (§1)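 kcat and KM were obtained from weighted Michaelis–Menten fits across concentrations of kobs values. Those came from one- or two-exponential decay fits to per-tile medians normalised to baseline and to non-cleaving reference variants. The variants were barcoded ribozymes transcribed in situ by E. coli RNA polymerase on sequenced MiSeq chips and tracked through a hybridised Cy3 probe at 37 °C, with 40 μM to 10 mM glucosamine-6-phosphate in HEPES/KCl/Mg(OAc)2 buffer flowed in.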

[2] = variants of: B1; test: self-cleavage kobs at 640 uM GlcN6P; higher = faster cleavage; RNA array
In short: as §1

[3] = variants of: B1; test: self-cleavage kobs at 2500 uM GlcN6P; higher = faster cleavage; RNA array
In short: as §1

[4] = variants of: B1; test: self-cleavage kobs at 10000 uM GlcN6P; higher = faster cleavage; RNA array
In short: as §1

[5] = variants of: B1; test: self-cleavage kobs at 160 uM GlcN6P; higher = faster cleavage; RNA array
In short: as §1

Row | Variant | self-cleavage kobs at 40 uM GlcN6P [1] [s⁻¹] | self-cleavage kobs at 640 uM GlcN6P [2] [s⁻¹] | self-cleavage kobs at 2500 uM GlcN6P [3] [s⁻¹] | self-cleavage kobs at 10000 uM GlcN6P [4] [s⁻¹] | self-cleavage kobs at 160 uM GlcN6P [5] [s⁻¹]
1 | AUAAAAGCGCCAGAACUACAGAAAUGUAGUUGACGAGGAGGAGGUUUAUGGAAUUUUCGCCGGAUGUCUCCAAA | 6.17e-05 ± 1.7e-05 | 0.000438 ± 0.00012 | 0.000124 ± 3.4e-05 | 4.29e-05 ± 1.2e-05 | 
2 | AUAAAAGCGCCAGAACUACAGAAAUGUAGUUAUCGAGGGGGAGGUUUAUCGAAUUUUCGGGGGCUGCAUCCAAA | < 1e-05 |  |  | < 1e-05 | 
3 | AUAAAAGCGCCAGAACUACAGAAAUGUAGUUGACGAGAGGGAGGUUUAUCGAAUUUUCGGCGGAUGCCUCCAAA | < 1e-05 | < 1e-05 | < 1e-05 |  | < 1e-05
4 | AUAAAAGCGCCAGAACUACAGAAAUGUAGUUGACAAGGACGAGGUUUGUCGAAUUUUCGGCUCAUGCCUCCAAA | < 1e-05 |  |  |  | 
5 | AUAAAAGCGCCAGAACUACAGAAAUGUAGUUGACGAGGAGGAAUUUUAUCGAAUUUUCGGCGGAUGCCUCCAAA | < 1e-05 | < 1e-05 |  | < 1e-05 | < 1e-05
6 | AUAAAAGCGCCAGAUCUACAGAAAUGUAUUUGACGAGGAGGAGGUUUAUCGAAGUUUCGGCGGAUGCCUCCAAA | 7.25e-05 ± 1.8e-05 |  |  | 0.00243 ± 0.00048 | 
7 | AUAAAAGCGCAAGAACUACAGAAAUGUAGUUUACGAGGAGGGGGUUUAUCGAAUUUUCGGCGGAUGCCUCCAAA | < 1e-05 |  |  |  | 
8 | AUAAAAGCGCCUGAACUACAGAAAUGUAGUGGGCGAGGAGGAGGUUUAUUGAAUUUUCGGCGGAUGCCUCCAAA | < 1e-05 |  |  |  | 
9 | AUAAAAGCGCCAGAACUACAGAAAUGUAGUUGACCAGGAGGAGGUUUAUCGAAUCUUCGGCGGAUGCCUCCAAA | < 1e-05 |  | < 1e-05 | < 1e-05 | < 1e-05
10 | AUAAAAGGGCCAAAACUACAGAAAUGUAGUUGACGAGGAGGAGGUUUAUCGAAUUUUCGGCGGAUGCCUCCAAA | < 1e-05 | < 1e-05 | < 1e-05 | < 1e-05 | 
11 | AUAAAAGCGCCAGAACUACAGAAAUGUAGUUGACGAGGAGGAGGUUUACCGAAUUUACGGCGGAUGCCUCCAAA | < 1e-05 |  |  |  | 
12 | AUAAAAGCGCCAGAACUACAGAAAUGUAAUUGACGAGGAGGAGGUUUAUCGAAUUUUCGGCGGAUGCCCCCAAA | 6.51e-05 ± 1.6e-05 | 0.000122 ± 2.2e-05 | 0.000105 ± 1.6e-05 | 0.000486 ± 0.00013 | 7e-05 ± 1.3e-05
13 | AUAAACGCGCCAGAACUACAGAAAUGUAGUUGACGAGGAGGAGGUUUAGCGAAUUUUCGGCGGAUGCCUCCAAA | < 1e-05 | < 1e-05 |  |  | 
14 | AUAAAAGCGCCAGAACUACAGAAAUGUAGUUGACGAGGAGGAGGUUUAUCGAACCUUCGGCGGAAGCCUCCAAA | 3.24e-05 ± 1.6e-05 |  |  |  | 
15 | AUAAAAGCGCCAGAACUACAGAAAUGUAGUUGACGAGGAGAAGGUUUAUCGAAUUUUCGGUGGAUGCAUGAAAA | < 1e-05 |  |  |  | 
16 | AUAAAAGCGCCAGAACUACAGAAAUGUAGUUCACGAGGAGGAGGUUUAUCGAAUUUUCGGCAGAUGCCUCCAAA | < 1e-05 | < 1e-05 | < 1e-05 |  | < 1e-05
17 | AUAAAAUCGCCCGAACUACAGAAAUGUAGUUGACGAGGAGGAGGUUUAUGGAAUUUUCGGAGGAUGCCUCCAAA | 0.000187 ± 7.2e-05 |  |  | 0.000332 ± 0.00012 | 
18 | AUAAAAGCGCCAGAACUACAGAAAUGUAGUUGACGAGGAGAAGGUUUAUGGAAUUUUCGGUGGAUGCCUCCAAA | < 1e-05 | < 1e-05 | < 1e-05 | < 1e-05 | < 1e-05
19 | AUAAAAGCGCUAGAACUACAGAAAUGUAGUUGACGAGGAGGAGGUUUAUCGAAUUUUCGUCGGAUGCCUCCAAA | < 1e-05 | < 1e-05 | < 1e-05 | < 1e-05 | 
20 | AUAAAAGCGCCAAAACUACAGAAAUGUAGUUGACGAGGAGGAGGUUUAUCGAAUUUUCGGCGGUUGCCUCCAAA | < 1e-05 | < 1e-05 | < 1e-05 | < 1e-05 | 
21 | AUAAAAGCGCCAGAACUACAGAAAUGUAGUUGACGAGAGGGAGGGUUAUGGAAUUUUCGGCGGAUGCCUCCAAA | < 1e-05 |  | < 1e-05 |  | 
22 | AUAAAAGCGUCAGAACUACAGAAAUGUAGUUGACGAGGUGGACGUUUAUCGAAUUUUCGGCGGAUGCCUCCAAA | < 1e-05 |  |  | < 1e-05 | 
23 | AUAAAAGCGCCAGAACUACAGAAAUGUAGUUGACGAGGAGGAGGGUUAUCGAAUUUUCGCCGGAUGCCUCCAAA | < 1e-05 | < 1e-05 |  |  | 
24 | AUAAAAGCGCCGGAACUACAGAAAUGUAGUUGACGAGGAGGAGGUCUAGCGAAUUUUCGGCGGAUGCCUUCAAA | < 1e-05 |  |  | 3.44e-05 ± 1.4e-05 | 
25 | AUAAAUGCGCCAAUACUACAGAAAUGUAGUUGACGAGGAGGAGGUUUAUCGAAUUUUCGGCGGAUGCCUCCAAA | < 1e-05 |  |  | < 1e-05 | < 1e-05
26 | AUAAAAGCGCCAGAACUACAGAAAUGUAUUUGACGUGGAGGAGGUUUAUCGGAUUUUCGGCGGAUGCCUCCAAA | < 1e-05 |  |  |  | 
27 | AUAAAAGCGCCAGAACUACAGAAAUGUAGCUGACAAGGAGGAGGUUUAUCGAAUUUUCGGCGGAUGUCUCCAAA | < 1e-05 |  |  |  | 
28 | AUAAAAUCGCCAGAACUACAGAAAUGUAGUUGACGAGGAGGACGUUUAUCGAAUUUUCGGCGGAUGCCUCCAAA | < 1e-05 | < 1e-05 |  |  | < 1e-05
29 | AUAAAAGCGCCAGAACUACAGAAAUGUAGUUGACGAGGAGGAGGUUUAUCGAACUUUCGGCGUCUGCCUCCAAA | < 1e-05 |  |  | < 1e-05 | 
30 | AUAAAAGCGCCAGAACUACAGAAAUGUAGUAGACGAGGAGGAGGAUUAUCGAAUUUUCGGCUGAUGCAUCCAAA | < 1e-05 |  |  |  | 
